Assay results published in article doi:10.1101/2020.03.30.016154 (bioRxiv, 2020).

Target: the molecule itself
Experiment: cryo-EM structure

B1: full-length mouse serotonin (3A) receptor (5-HT3AR) (receptor, UniProt P23979-2 24-483, looked up)
chain: SRRRATQARDTTQPALLRLSDHLLANYKKGVRPVRDWRKPTTVSIDVIMYAILNVDEKNQVLTTYIWYRQYWTDEFLQWTPEDFDNVTKLSIPTDSIWVPDILINEFVDVGKSPNIPYVYVHHRGEVQNYKPLQLVTACSLDIYNFPFDVQNCSLTFTSWLHTIQDINITLWRSPEEVRSDKSIFINQGEWELLEVFPQFKEFSIDISNSYAEMKFYVIIRRRPLFYAVSLLLPSIFLMVVDIVGFCLPPDSGERVSFKITLLLGYSVFLIIVSDTLPATAIGTPLIGVYFVVCMALLVISLAETIFIVRLVHKQDLQRPVPDWLRHLVLDRIAWILCLGEQPMAHRPPATFQANKTDDCSAMGNHCSHVGGPQDLEKTPRGRGSPLPPPREASLAVRGLLQELSSIRHFLEKRDEMREVARDWLRVGYVLDRLLFRIYLLAVLAYSITLVTLWSIWHYS
  stoichiometry N: 5
